This note sets out measurements from patent US20190338048A1.

For assay [1], the target named is CAT-2200 lambda light chain, wild type (L1), N-terminal FLAG tag. Put plainly: LCCA, SPR of light chain tags.
Assay [2] deals with Pertuzumab kappa light chain S131K_S176K. Put plainly: LCCA.
The target is the same in assay [3]. Description: LCCA. This is another data set of the same source.
The target is the same in assay [4]. Put plainly: LCCA. This is another data set of the same source.
Assay [5] has the same target. Put plainly: LCCA. The source holds these as a separate data set.
For assay [6], the target named is Pertuzumab kappa light chain S131K_L135W_S176K. Put plainly: LCCA.
Assay [7] addresses Pertuzumab kappa light chain S121K_S131K_S176K. Put plainly: LCCA.
Assay [8] has the same target. Put plainly: LCCA. This is another data set of the same source.
In assay [9] the target is Pertuzumab kappa light chain V133G_L135W_S176D_T180E. Put plainly: LCCA.
The target of assay [10] is Pertuzumab kappa light chain V133G_S176D_T180E. Put plainly: LCCA.
Assay [11] addresses CAT-2200 lambda light chain Y178K. Put plainly: LCCA.
Assay [12] deals with Pertuzumab kappa light chain V133G_L135W_S176D. Put plainly: LCCA.
Assay [13] concerns the target Pertuzumab kappa light chain V133G_S176D. Put plainly: LCCA.
For assay [14], the target named is CAT-2200 lambda light chain S122D_Y178K. Description: LCCA.
Assay [15] concerns the target Pertuzumab kappa light chain S121K_V133G_S176D. Description: LCCA.
Assay [16] concerns the target Pertuzumab kappa light chain Q124E_V133G_S176D. Description: LCCA.
Assay [17] addresses Pertuzumab kappa light chain Q124E_V133G_S176D_T180E. Description: LCCA.
The target in assay [18] is Pertuzumab kappa light chain Q124E_V133G_S176D_T178E_T180E. Put plainly: LCCA.
Assay [19] concerns the target Pertuzumab kappa light chain Q124E_V133G_S176D. Put plainly: LCCA. This is another data set of the same source.
The target of assay [20] is Pertuzumab kappa light chain Q124E_V133G_S176D_T180E. Put plainly: LCCA. The source holds these as a separate data set.
Assay [21] concerns the target Pertuzumab kappa light chain V133G_L135A_S176D_T180E. Description: LCCA, SPR tag read-out.
Assay [22] has as its target Pertuzumab kappa light chain Q124R_Q160K_T178R. Description: LCCA.
Assay [23] concerns the target Pertuzumab kappa light chain Q124R_L135W_T178R. Put plainly: LCCA.
Assay [24] addresses Pertuzumab kappa light chain Q124R_L135W_Q160K_T178R. Put plainly: LCCA.
For assay [25], the target named is Pertuzumab kappa light chain Q124R_Q160K_T178R. Description: LCCA. The source holds these as a separate data set.
The target in assay [26] is CAT-2200 lambda light chain S122D_K129T_S180E. Description: LCCA.
For assay [27], the target named is Pertuzumab kappa light chain S121K_Q124R_Q160K_T178R. Description: LCCA.
Assay [28] deals with Pertuzumab kappa light chain S121K_Q124R_T178R. Description: LCCA.
For assay [29] the target is unchanged. Description: LCCA, SPR tag read-out.
In assay [30] the target is CAT-2200 lambda light chain S122D_K129T_S176D_Y178T. Description: LCCA, SPR tag read-out.
Assay [31] addresses CAT-2200 lambda light chain S122D_K129T_V133D. Description: LCCA, SPR tag read-out.
The target in assay [32] is Pertuzumab kappa light chain S121K_Q124R_T178R. Put plainly: LCCA, SPR tag read-out. This is another data set of the same source.
Assay [33] has as its target CAT-2200 lambda light chain S122D_K129T_S176E_Y178E. Put plainly: LCCA, SPR tag read-out.
Assay [34] addresses Pertuzumab kappa light chain S121K_Q124R_T178R. Put plainly: LCCA, SPR tag read-out. This is another data set of the same source.
In assay [35] the target is CAT-2200 lambda light chain S122D_K129T_S180E. Put plainly: LCCA. The source holds these as a separate data set.
For assay [36], the target named is Pertuzumab kappa light chain Q124K_S176A_T178R. Description: LCCA.
Assay [37] concerns the target Pertuzumab kappa light chain Q124E_V133D_S176E_T180E. Put plainly: LCCA.
For assay [38], the target named is Pertuzumab kappa light chain Q124E_V133D_S176E_T178E_T180E. Put plainly: LCCA.
The target of assay [39] is CAT-2200 lambda light chain E124Q_T131R. Put plainly: LCCA, SPR.
For assay [40] the target is unchanged. Description: LCCA, SPR tag read-out.
Assay [41] has the same target. Description: LCCA, SPR tag read-out. This is another data set of the same source.
The target of assay [42] is Pertuzumab kappa light chain Q124E_V133D_L135W. Put plainly: LCCA, SPR tag read-out.
Assay [43] has as its target Pertuzumab kappa light chain Q124E_V133D_L135W_T180D. Put plainly: LCCA, SPR tag read-out.
The target in assay [44] is Pertuzumab kappa light chain Q124E_V133D_T180D. Description: LCCA, SPR tag read-out.
Assay [45] concerns the target Pertuzumab kappa light chain Q124E_V133D. Description: LCCA, SPR.
The target in assay [46] is Pertuzumab kappa light chain S121K_Q124E_V133D_T180D. Put plainly: LCCA, SPR tag read-out.
In assay [47] the target is Pertuzumab kappa light chain S121K_Q124E_V133D. Description: LCCA, SPR tag read-out.
Assay [48] has as its target CAT-2200 lambda light chain S122D_E124Q_T131R. Put plainly: LCCA, SPR tag read-out.
The target in assay [49] is Pertuzumab kappa light chain Q124E_V133D_T178E. Description: LCCA.
The target in assay [50] is Pertuzumab kappa light chain Q124E_V133D_S176D_T178E. Put plainly: LCCA.
For assay [51], the target named is Pertuzumab kappa light chain Q124E_V133D_T178E. Description: LCCA. The source holds these as a separate data set.
For assay [52], the target named is Pertuzumab kappa light chain Q124E_V133D_S176D_T178E. Description: LCCA. This is another data set of the same source.
Assay [53] shares this target. Put plainly: LCCA, SPR tag read-out.
Assay [54] has as its target Pertuzumab kappa light chain Q124E_V133D_S176D_T178D. Put plainly: LCCA, SPR tag read-out.
Assay [55] addresses Pertuzumab kappa light chain Q124E_S176E_T178D_T180E. Description: LCCA.
For assay [56], the target named is Pertuzumab kappa light chain Q124E_S176E_T180E. Description: LCCA.
In assay [57] the target is Pertuzumab kappa light chain Q124E_S176E_T178E_T180E. Description: LCCA.
The target in assay [58] is CAT-2200 lambda light chain Y178K. Description: LCCA. The source holds these as a separate data set.
The target in assay [59] is Pertuzumab kappa light chain Q124E_Q160E_S176D_T178D_T180E. Put plainly: LCCA.
Assay [60] has as its target Pertuzumab kappa light chain Q124E_Q160E_S176D_T178D. Description: LCCA.

Read-outs that look alike come from different tables or passages of the source.

Substance “CAT-2200 Fab heavy chain, wild type (H1), ABD2-His6 tagged” gave an H1L1:H1L2 normalized median scalar value ln(r1/f1) in assay [1] of 0.48.

Take Pertuzumab Fab heavy chain K145T_S186E: the H2L2:H2L1 median scalar value was 1.58 ln in assay [2]; 2.25 ln in assay [3]; 0.53 ln in assay [4]; 0.9 ln in assay [5]; -0.33 ln in assay [6].

Turning to “Pertuzumab Fab heavy chain K145T_S186E_K228D”, the results for the H2L2:H2L1 median scalar value in assay [7] and in assay [8] were 1.21 ln and 0.33 ln, respectively.

With Pertuzumab Fab heavy chain L124R, the H2L2:H2L1 median scalar value in assay [9] was 0.29 ln; in assay [10], 2.34 ln; in assay [12], 0.55 ln; in assay [13], 2.2 ln. For the same substance, the H2L2:H2L1 normalized median ratio was 91% in assay [10] and 9% in [11].

For the substance Pertuzumab Fab heavy chain L124R_K228D, the H2L2:H2L1 normalized median ratio in assay [14] came out at 33%. For the same substance, in assay [15], the H2L2:H2L1 median scalar value turned out to be 1.97 ln and the H2L2:H2L1 normalized median ratio came out at 67%.

As to Pertuzumab Fab heavy chain L124R_L143K, the H2L2:H2L1 median scalar value in assay [16] stood at 0.45 ln; in assay [17] it was 0.35 ln; in assay [18] it was 0.07 ln; in [19] it was 0.55 ln; in assay [20], 0.25 ln. Besides, the H2L2:H2L1 normalized median ratio was determined as 49% in assay [11] and 51% in [18].

On to “Pertuzumab Fab heavy chain L124R_S186K_V190F”, for which, in [21], the H2L2:H2L1 median scalar value is -0.44 ln(ratio).

As for Pertuzumab Fab heavy chain L143E_K145T, the H2L2:H2L1 median scalar value was 0.86 ln in [22], -0.32 ln in assay [23], -0.26 ln in assay [24] and 3.09 ln in assay [25].

In the case of “Pertuzumab Fab heavy chain L143E_K145T_Q179E_K228D”, the H2L2:H2L1 normalized median ratio in [26] stood at 33%; in [27], 75%; in [28] it was 67%; in assay [29], 92%; in assay [30], 8%; in assay [31], 34%. In addition, the H2L2:H2L1 normalized median ratio in assay [32] stood at 95%; in assay [33], 5%; in assay [34], 66%; in [35], 25%. Besides, the H2L2:H2L1 median scalar value in [27] is 1.15 ln; in assay [28], 0.72 ln; in assay [29], 2.56 ln(ratio); in assay [32], 3.5 ln(ratio); in [34] it was 1.1 ln(ratio).

On to “Pertuzumab Fab heavy chain L143E_K145T_S188W”, for which, in [36], the H2L2:H2L1 median scalar value came out at 0.43 ln.

With Pertuzumab Fab heavy chain L143K_S188K, the H2L2:H2L1 median scalar value in assay [37] was 1.01 ln; in [38] it was 0.61 ln. For the same substance, the figures for the H2L2:H2L1 normalized median ratio in assay [37] and in assay [11] were 73% and 27%, respectively.

Pertuzumab Fab heavy chain L143R: the H2L2:H2L1 normalized median ratio in assay [39] was 4%; in assay [40], 15%; in assay [41], 11%; in assay [42], 89%; in assay [44], 85%; in assay [45], 96%. The H2L2:H2L1 median scalar value in assay [42] was 2.13 ln(ratio); in assay [43], 0.87 ln(ratio); in assay [44] it was 1.72 ln(ratio). Moreover, the H2L2:H2L1 normalized median scalar value ln(r1/f1) in assay [45] worked out at 3.06.

Consider Pertuzumab Fab heavy chain L143R_K228D, for which the results for the H2L2:H2L1 median scalar value in assay [46] and in assay [47] were -0.2 ln(ratio) and 1.08 ln(ratio), respectively. In addition, the H2L2:H2L1 normalized median ratio came out at 74% in [47] and 26% in [48].

Turning to Pertuzumab Fab heavy chain L143R_S188K, the H2L2:H2L1 median scalar value in assay [49] was 1.31 ln; in [50] it was -0.02 ln; in assay [51], 1.45 ln; in assay [52], 1.21 ln; in assay [53] it was 1.21 ln(ratio); in assay [54] it was 0.02 ln(ratio). The H2L2:H2L1 normalized median ratio in [11] turned out to be 22%.

Take Pertuzumab Fab heavy chain Q179K_S188K: the H2L2:H2L1 median scalar value in assay [55] is 2.01 ln; in assay [56], 2.76 ln; in [57], 2.48 ln. Besides, the H2L2:H2L1 normalized median ratio in [55] came out at 88%; in assay [11], 12%; in assay [57], 92%; in assay [58] it was 8%.

Take Pertuzumab Fab heavy chain S186R_S188K: the H2L2:H2L1 normalized median ratio in [11] stood at 31%; in assay [60], 69%. Further, the H2L2:H2L1 median scalar value in assay [59] was determined as 0 ln; in [60], 0.8 ln.
